Data as given in paper PMC3670212 (Cell, 2013).

Columns and labels:
[1] = target: E. coli DnaB replicative helicase (E. coli, UniProt P0ACB0 1-471); assay: negative-stain electron microscopy
[2] = target: the molecule itself; assay: negative-stain electron microscopy

E. coli DnaB replicative helicase, sequence (P0ACB0 whole entry): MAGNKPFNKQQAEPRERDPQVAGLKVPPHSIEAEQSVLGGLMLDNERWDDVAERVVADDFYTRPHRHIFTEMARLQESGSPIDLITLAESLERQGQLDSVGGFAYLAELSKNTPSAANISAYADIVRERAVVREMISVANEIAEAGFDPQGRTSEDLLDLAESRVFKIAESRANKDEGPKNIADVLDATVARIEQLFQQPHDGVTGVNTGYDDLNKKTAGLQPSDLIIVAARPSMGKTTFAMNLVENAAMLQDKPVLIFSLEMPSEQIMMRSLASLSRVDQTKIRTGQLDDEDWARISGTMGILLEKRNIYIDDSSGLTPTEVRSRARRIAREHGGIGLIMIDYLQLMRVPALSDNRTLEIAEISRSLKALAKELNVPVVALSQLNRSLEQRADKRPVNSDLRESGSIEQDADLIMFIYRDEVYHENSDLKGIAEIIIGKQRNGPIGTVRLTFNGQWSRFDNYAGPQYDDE

stoichiometry N [1]: 6 DnaC subunits per DnaB hexamer
B1: E. coli DnaC helicase loader (natural protein, UniProt P0AEF0 1-245, looked up)
chain: MKNVGDLMQRLQKMMPAHIKPAFKTGEELLAWQKEQGAIRSAALERENRAMKMQRTFNRSGIRPLHQNCSFENYRVECEGQMNALSKARQYVEEFDGNIASFIFSGKPGTGKNHLAAAICNELLLRGKSVLIITVADIMSAMKDTFRNSGTSEEQLLNDLSNVDLLVIDEIGVQTESKYEKVIINQIVDRRSSSKRPTGMLTNSNMEEMTKLLGERVMDRMRLGNSLWVIFNWDSYRSRVTGKEY
stoichiometry N [2]: 6
